Measured values: patent publication US20030139374A1 (University of Texas, published 2003)

Key:
TNFα = conditions: cited from earlier work
[1] = test system: cancer patients having progressive disease; conditions: human, in vivo; cited from earlier work
A20 lymphoma cells = test: In vitro coagulation assay on A20 cells with B21-2/10H10 capture antibody; assay type: cell-based, mouse
[2] = test system: C1300 Muγ mouse neuroblastoma; test: In vivo tumor thrombosis, C1300 Muγ; parameters: species or system BALB/c nu/nu mice
Source text: (§1) Tumor test systems were of four types: i) 3LL mouse lung carcinoma growing subcutaneously in C57BL/6 mice; ii) C1300 mouse neuroblastoma growing subcutaneously in BALB/c nu/nu mice; iii) HT29 human colorectal carcinoma growing subcutaneously in BALB/c nu/nu mice; and iv) C1300 Muγ mouse neuroblastoma growing subcutaneously in BALB/c nu/nu mice. The C1300 Muγ tumor is an interferon-γ secreting transfectant derived from the C1300 tumor (Watanabe et al, 1989).
(§2) To establish tumors, 10^6 to 1.5×10^7 tumor cells were injected subcutaneously into the right anterior flank of the mice. When tumors had grown to various sizes, mice were randomly assigned to different study groups. […] Fab′, or bispecific antibody. Other mice received equivalent quantities IgG, Fab′ or bispecific antibody alone. The injections were performed slowly into one of the tail veins over approximately 45 seconds, usually followed by 200 μl of saline.
(§3) Twenty-four hours after being injected with tTF or immunoglobulin-tTF conjugates, the mice were anesthetized with metophane and were exsanguinated by perfusion with heparinized saline. Tumors and normal tissues were excised and immediately fixed in 3% (v/v) formalin. Paraffin sections were cut and stained with hematoxylin and eosin. Blood vessels having open lumens containing erythrocytes and blood vessels containing thrombi were counted. […]

[3] = test system: C1300 mouse neuroblastoma; test: In vivo tumor thrombosis, C1300; parameters: species or system BALB/c nu/nu mice; conditions: large tumors (>1000 mm^3); 24 hours after injection
Source text: as §1, §2, §3

3LL mouse lung carcinoma = test: In vivo tumor thrombosis, 3LL; parameters: species or system C57BL/6 mice; conditions: large (>800 mm^3) tumors
Source text: as §1, §2, §3

C1300 Muγ tumors = test: Anti-tumor effects (tumor growth), C1300 Muγ; assay type: in vivo, nu/nu mice; conditions: 300 mm^3 at start
Experimental: The tumor test systems were: i) L540 human Hodgkin's disease tumors growing in SCID mice; ii) C1300 Muγ (interferon-secreting) neuroblastoma growing in nu/nu mice; iii) H460 human non-small cell lung carcinoma growing in nu/nu mice. To establish solid tumors, 1.5×10^7 tumor cells were injected subcutaneously into the right anterior flank of SCID or BALB/c nu/nu mice (Charles River Labs., Wilmingham, Mass.). When the tumors had grown to various diameters, mice were assigned to different experimental groups, each containing 4 to 9 mice.
Other mice received equivalent quantities of bispecific antibody alone. The injections were performed over ˜45 seconds into one of the tail veins, followed by 200 μl of saline. The infusions were repeated six days later. Perpendicular tumor diameters were measured at regular intervals and tumor volumes were calculated.
Mice bearing small (300 mm^3) C1300 Muγ tumors were injected intravenously with 16-20 μg tTF219. The treatment was repeated one week later. […] One week after the second treatment with tTF219, tumors were 60% of the size of tumors in mice receiving diluent alone. The greater effectiveness of the second injection probably derives from the greater thrombotic action of tTF219 on vessels in large tumors, observed above. […]

[4] = test system: HT29 human colorectal carcinomas; test: Anti-tumor effects, HT29; assay type: in vivo, Nu/nu mice; conditions: large (1200 mm^3) tumors
Experimental: Anti-tumor effects were also observed in mice bearing HT29 human colorectal carcinomas. Nu/nu mice bearing large (1200 mm^3) tumors on their flanks were injected intravenously with tTF219 or PBS (control), and growth of the tumors was monitored each day for 10 days. The tumors in the tTF219 treated mice discontinued growth for about 7 days after treatment, whereas the tumors in mice treated with PBS continued to grow unchecked.

[5] = test system: HT29 (human colorectal carcinoma) xenograft; test: HT29 xenograft necrosis after tTF constructs with Factor VIIa; parameters: species or system BALB/c nu/nu mice; conditions: mouse, in vivo, iv
[6] = test system: IL-1α-stimulated bEnd.3 cells; test: Factor Xa formation by coaguligand on bEnd.3 cells, chromogenic assay; assay type: cell-based, mouse; conditions: 10 μg per ml
Experimental: The ability of Annexin V to affect Factor Xa formation induced by coaguligand was determined by a chromogenic assay. […] Annexin V was added at concentrations ranging from 0.1 to 10 μg/ml and cells were incubated for 30 min. before addition of diluted Proplex T. The amount of Factor Xa generated in the presence or absence of Annexin V was determined. Each treatment was performed in duplicate and repeated at least twice.

L540 Hodgkin tumors = test: Annexin V inhibition of coaguligand-induced thrombosis in vivo; parameters: species or system SCID mice
Experimental: The ability of Annexin V to inhibit coaguligand-induced thrombosis in vivo was examined in L540 Hodgkin-bearing SCID mice.
Four hours after the last injection mice were anesthetized and perfused with heparinized saline. Tumors were removed, fixed with 4% formalin, paraffin-embedded and stained with hematoxylene-eosin. The number of thrombosed and non-thrombosed blood vessels were counted and the percentage of thrombosis was calculated.

[7] = target: T1, recombinant human VEGF (VEGF165) (human, UniProt P15692-4 27-191, biotinylated in the capture and competition ELISAs); test: capture ELISA, antibody-coated wells, biotinylated VEGF titrated
T1 construct: also called free VEGF; VEGF-biotin

VEGF:Flk-1 complex = target: T2, VEGF:Flk-1 complex (human; mouse, UniProt P15692 27-191; P35918 20-762, biotinylated); test: capture ELISA, antibody-coated wells, soluble VEGF:sFlk-1-biotin titrated
T2 construct: Formed overnight at 4 C at a molar ratio of sFlk-1 to VEGF of 2.5:1; also called VEGF:receptor complex; VEGF:sFlk-1

[8] = target: T1, recombinant human VEGF (VEGF165); test: competition ELISA, 1 nM VEGF on VEGFR1 (Flt-1/Fc) wells, 100 fold molar excess of 2C3
[9] = target: T1, recombinant human VEGF (VEGF165); test: competition ELISA, 1 nM VEGF on VEGFR1 (Flt-1/Fc) wells, 1000 fold molar excess of 2C3

T1 sequence (P15692 other isoform, or with tags, fused parts or gaps limits assumed): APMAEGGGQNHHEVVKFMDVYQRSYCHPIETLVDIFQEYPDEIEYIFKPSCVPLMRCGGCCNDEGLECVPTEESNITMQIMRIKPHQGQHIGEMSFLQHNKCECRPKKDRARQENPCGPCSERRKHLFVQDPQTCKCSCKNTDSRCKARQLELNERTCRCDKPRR
T2 sequence (P15692 other isoform, or with tags, fused parts or gaps limits assumed, chain 1 of 2): as the sequence (P15692 other isoform, or with tags, fused parts or gaps limits assumed) above
T2 sequence (P35918 20-762 limits assumed, chain 2 of 2): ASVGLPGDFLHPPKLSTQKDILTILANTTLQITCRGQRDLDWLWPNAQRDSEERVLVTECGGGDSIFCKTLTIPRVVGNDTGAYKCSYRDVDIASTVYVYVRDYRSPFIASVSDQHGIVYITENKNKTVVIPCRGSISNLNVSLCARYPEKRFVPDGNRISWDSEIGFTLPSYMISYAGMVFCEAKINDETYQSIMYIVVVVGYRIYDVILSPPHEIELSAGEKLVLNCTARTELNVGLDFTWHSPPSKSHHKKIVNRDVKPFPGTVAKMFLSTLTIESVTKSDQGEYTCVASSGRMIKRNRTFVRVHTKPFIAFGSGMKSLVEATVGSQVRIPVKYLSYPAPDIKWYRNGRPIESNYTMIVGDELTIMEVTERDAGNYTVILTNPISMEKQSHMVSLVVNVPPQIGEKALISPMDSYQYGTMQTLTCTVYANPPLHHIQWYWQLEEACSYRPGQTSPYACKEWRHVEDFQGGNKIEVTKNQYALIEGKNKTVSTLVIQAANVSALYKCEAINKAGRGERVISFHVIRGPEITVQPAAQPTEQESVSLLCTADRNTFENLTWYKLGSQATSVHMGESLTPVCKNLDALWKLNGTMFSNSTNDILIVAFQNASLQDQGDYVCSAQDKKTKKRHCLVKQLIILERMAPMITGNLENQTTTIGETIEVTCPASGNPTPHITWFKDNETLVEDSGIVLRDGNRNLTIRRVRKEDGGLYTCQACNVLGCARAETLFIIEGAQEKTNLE

## Cc1ccc2c(=O)c3cccc(CC(=O)O)c3oc2c1C [DMXAA]
TNFα
  fold less effective than endotoxin in inducing TNFα: 20 fold

## NC(=O)c1nnn(Cc2cc(Cl)c(C(=O)c3ccc(Cl)cc3)c(Cl)c2)c1N [CAI, carboxyamidotriazole]
[1]
  patients with disease stabilization: 49%

B1: tTF219: residues 1-219 of TF plus an additional glycine at the N-terminus (protein)
chain: GSGTTNTVAAYNLTWKSTNFKTILEWEPKPVNQVYTVQISTKSGDWKSKCFYTTDTECDLTDEIVKDVKQTYLARVFSYPAGNVESTGSAGEPLYENSPEFTPYLETNLGQPTIQSFEQVGTKVNVTVEDERTLVRRNNTFLSLRDVFGKDLIYTLYYWKSSSSGKKTAKTNTNEFLIDVDKGENYCFSVQAVIPSRTVNRKSTDSPVECMGQEKGEFRE
A20 lymphoma cells; 10^−10 M tTF219, absence of Factor VIIa
  coagulation time: 60 s
A20 lymphoma cells; 10^−10 M tTF219, presence of 13.5 nM Factor VIIa
  coagulation time: 20 s
[2]; 24 hours after injection
  thrombosis of tumor vessels: practically all vessels in all regions of the tumor were thrombosed
[2]; small (<500 mm^3) C1300 and C1300 Muγ
  effect on vessels in small tumors: largely unaffected
[3]
  thrombosis of tumor vessels: virtually all vessels were thrombosed
3LL mouse lung carcinoma
  tumor vessels thrombosed, average: 62%
C1300 Muγ tumors; 16-20 μg i.v., repeated one week later, one week after the second treatment
  tumor size relative to mice receiving diluent alone: 60%
C1300 Muγ tumors; treatment repeated 6 days later, fourteen days after the first injection
  tumor size relative to controls receiving diluent alone: 75%
[4]
  time tumors discontinued growth after treatment: about 7 days
[5]
  necrosis, average area as percentage of total tumor area: some necrosis

B2: Annexin V: binds to PS with high affinity (protein, UniProt P08758 2-320, looked up)
Annexin A5: AQVLRGTVTDFPGFDERADAETLRKAMKGLGTDEESILTLLTSRSNAQRQEISAAFKTLFGRDLLDDLKSELTGKFEKLIVALMKPSRLYDAYELKHALKGAGTNEKVLTEIIASRTPEELRAIKQVYEEEYGSSLEDDVVGDTSGYYQRMLVVLLQANRDPDAGIDEAQVEQDAQALFQAGELKWGTDEEKFITIFGTRSVSHLRKVFDKYMTISGFQIEETIDRETSGNLEQLLLAVVKSIRSIPAYLAETLYYAMKGAGTDDHTLIRVMVSRSEIDLFNIRKEFRKNFATSLYSMIKGDTSGDYKKALLLLCGEDD
[6]
  inhibition of factor Xa production: 58%
L540 Hodgkin tumors; 100 μg Annexin V 2 hours before 40 μg coaguligand
  effect of pre-treatment on coaguligand-induced anti-tumor effects: completely abolished
L540 Hodgkin tumors; 100 μg Annexin V alone
  effect on tumor morphology: did not alter tumor morphology

B3: anti-VEGF antibody 2C3 (antibody, V domains shown)
VH: QVQLQESGPELVKPGASVKMSCKASGYTFTSYVFHWVKQKPGQGLEWIGYINPYNDVTKYNEKFKGKATLTSDKSSSTAYMELSSLTSEDSAVYYCASYYGSSYGYYAMDDWGQGTTVTVSS
VL: DIQLTQSPASLSVSAGEKVTMSCKSSQSLLNSGNQKNYLAWYQQKPGQPPKLLIHGASTRESGVPDRFTGSGSGTDFTLTISSVQAEDLAVYYCQNDYSYPLTFGAGTKLELKR
[7]
  EC50: 1 nM
VEGF:Flk-1 complex
  EC50: 150 nM
[8]
  percent of VEGF bound to VEGFR1-coated wells relative to no 2C3: 92%
[9]
  percent of VEGF bound to VEGFR1-coated wells relative to no 2C3: 105%
